Experimental data from patent publication US20210130485A1.

Target: FcγRs
Experiment: cell-based or functional assay

pSyk levels in primary human microglial cells on polypeptide-coated plates (pSyk sandwich immunoassay): 3 fold
Substance: cis-LALA modified Fc polypeptide dimer fused to an anti-BACE1 Fab (bispecific antibody)
